Laboratory results as given in patent US8026342B2, “Compositions and methods for binding sphingosine-1-phosphate” (Lpath, Inc., priority 2006, dated 2011).

Columns and labels:
[1] = system: COLO205 tumor; assay: SC COLO205 colorectal tumor xenograft; assay type: in vivo, nude NCr (nu/nu) mice
Method: Nude mice were implanted sc near the right flank with one fragment per mouse of COLO 205 tumor from an in vivo passage. All treatments were initiated the day when 60 mice in each experiment established tumors ranging in size from approximately 100 to 200 mm3. […] Avastin was administered iv at a dosage of 40 mg/kg/dose on a q7d schedule, injected in a volume of 0.1 mL/20 g body weight. Paclitaxel (positive control), was administered iv at a dosage of 15 mg/kg/dose on a q1d×5 schedule, injected in a volume of 0.1 mL/10 g body weight.
Animals were observed daily for mortality. Tumor dimensions and body weights were collected twice weekly starting with the first day of treatment and including the day of study termination. When the median tumor in the vehicle-treated control group in each study reached approximately 4,000 mg, the study was terminated. Tumors from each animal were harvested, wet weights were recorded, tumors were processed for determination of microvascular densities (MVD) by CD-31 staining. Tumor weights (mg) were calculated using the equation for an ellipsoid sphere (l×w^2)/2=mm^3, where l and w refer to the larger and smaller dimensions collected at each measurement and assuming unit density (1 mm^3=1 mg).

[2] = system: VEGF-induced angiogenesis; assay: VEGF-induced angiogenesis in GFR Matrigel plug assay; assay type: in vivo, nu/nu mice; conditions: 10 mg/kg i.p. every 72 hrs, 12 days
Method: Neovascularization in vivo was performed using the GFR Matrigel plug assay as described in Staton, et al., Int J Exp Pathol, 2004. 85(5): p. 233-48. 4-6 week old nu/nu mice were injected in the left flank with 500 uL of ice-cold GFR Matrigel. The GFR Matrigel was injected either alone (control) or after addition of 10 ug/mL VEGF supplemented with 100 ug/ml heparin. Groups consisted of 3 animals for control and sonepcizumab treatment. Animals were treated with the saline or sonepcizumab (10 mg/kg) 1 day prior to the implantation of GFR Matrigel and doses were administrated i.p. every 72 hrs for the duration of the experiment. After 12 days animals were sacrificed; the plugs were excised and immediately fixed in zinc and formalin-free fixative overnight, embedded in paraffin and sectioned (5 um). Paraffin-embedded sections were then stained for CD31 (Pharmingen). Images (9 images per section, 3 sections per plug) were taken by digital camera at 20× magnification and the CD31 positive staining was then quantified by PhotoShop 6.0 program and expressed as angiogenesis score (pixel^2) by ImageJ.

[3] = system: DU145 tumor; assay: SC DU145 prostate tumor xenograft; assay type: in vivo, nude NCr (nu/nu) mice; conditions: LT1009 50 mg/kg ip q2d; Avastin 20 mg/kg q4d; Paclitaxel 7.5 mg/kg q1d×5
Method: Nude mice were implanted sc near the right flank with one fragment per mouse of DU145 tumor from an in vivo passage. All treatments were initiated the day when 60 mice in each experiment established tumors ranging in size from approximately 100 to 200 mm^3. […] Paclitaxel and Avastin were administered iv and ip at a dosage of 7.5 mg/kg/dose and 20 mg/kg/dose, q1d×5 and q4d, respectively, injected in a volume of 0.1 mL/10 g body weight.
During the course of the study tumor growth was monitored by measuring the sc tumors on three axes and calculating the volume. At the end of the study final tumor weights and volumes were determined and then the mice were sacrificed, the tumors harvested. Microvascular densities (MVD) of the tumors were then determined by CD-31 staining.

[4] = system: Matrigel plug neovascularization; assay: In vivo Matrigel plug assay for neovascularization (S1P, VEGF, bFGF); parameters: species or system mice
Method: Based on in vivo studies showing that S1P increased endothelial capillary growth into subcutaneously implanted Matrigel plugs, we speculated that SPHINGOMAB could reduce de novo BV formation in vivo. To investigate this, we employed the in vivo Matrigel Plug assay for neovascularization. In one set of experiments, Matrigel was supplemented with either 1 μM S1P, 0.5 μg/mL bFGF or 1 μg/mL VEGF and then […]. into mice (n=4). After 10 days, the mice were heparinized and injected with the fluorescent lectin, Isolectin B4-FITC, which binds to adhesion molecules expressed by vascular EC that form the growing BVs. The plugs were then excised, frozen in OCT, sectioned and viewed for FITC-stained BVs.
Sections of the plugs were then stained with hemotoxyln & eosin for evaluation of EC infiltration (FIG. 6B). The infiltration of ECs is a critical step in neo-vascularization. […] Cell infiltration is presumed to be ECs although we recognize that other cell types such as immune cells may also be stained.
Endogenous S1P from the blood and surrounding tissue could supply a wound with pro-angiogenic stimuli. The ability of SPHINGOMAB to reduce endogenous S1P in a wound was investigated. Optimally stimulated plugs (Matrigel supplemented with 0.5 μg/mL bFGF or […] VEGF) were implanted into mice. Mice received i.p. injections of 25 mg/kg SPHINGOMAB or saline every 48 hrs starting 1 day prior to Matrigel implantation. Each treatment group (Matrigel, Matrigel plus GF or Matrigel plus GF and administered SPHINGOMAB) consisted of a minimum of 6 mice. After 10 days, the mice were treated with heparin, injected with Isolectin B4-FITC, the plugs excised, embedded in OCT freezing medium and sectioned.

[5] = Competitive ELISA for specificity: lipid competitors against anti-S1P mAb binding to coated S1P; conditions: for recognition of ceramide-1-phosphate (C1P): competitor C1P; for cross-reactivity to lysophosphatidic acid (LPA): competitor LPA
Method: As described in Example 1, below, bound antibody was detected by a second antibody, specific for the mouse or human IgG, conjugated with HRP. Chromogenic reactions were measured and reported as optical density (OD). The concentration of lipids used for the competition is indicated on the X-axis.
For cross reactivity, a competitive ELISA was performed as described above, except for the following alterations. The primary incubation consisted of the competitor (S1P, SPH, LPA, etc.) and a biotin-conjugated anti-S1P mAb. Biotinylation of the purified monoclonal antibody was performed using the EZ-Link Sulfo-NHS-Biotinylation kit (Pierce). […] The competitor was prepared as follows: lipid stocks were sonicated and dried under argon before reconstitution in DPBS/BSA [1 mg/ml fatty acid free BSA (Calbiochem) in DPBS (Invitrogen 14040-133)]. Purified anti-S1P mAb was diluted as necessary in PBS/0.5% Triton X-100. Competitor and antibody solutions were mixed together so to generate 3 parts competitor to 1 part antibody. A HRP-conjugated streptavidin secondary antibody (Jackson Immunoresearch) was used to generate signal.
i. Specificity. The humanized variants were tested for specificity in a competitive ELISA assay (FIG. 1) against S1P and several other biolipids.

[6] = LT1009 25 mg/kg ip q3d, increased to 75 mg/kg on Day 21
[7] = LT1009 50 mg/kg ip q3d, Avastin 40 mg/kg iv q7d, Paclitaxel 15 mg/kg iv q1d×5
[8] = 25 mg/kg i.p. every 48 hrs, 10 days

In the case of “LT1009: humanized anti-S1P IgG1/kappa mAb with Cys to Ala in HCDR2, light chain with 5 backmutations; SEQ ID NO: 31/32”, the “% Reduction compared to Vehicle-Treated Mice” value (“% Reduction” for short) [1, 6] is reported as 20%, the “Final Tumor Weights” value [1, 6] is reported as 2465.60 mg and the “% Reduction” value [1, 7] is reported as 32%. The “Final Tumor Weights” value [1, 7] was 2071.17 mg, the “prevention of VEGF-stimulated increase in cellularity and microvessel density” value [2] was ~80% and the “% Reduction” value [3] was 28%. For the same molecule, the “Final Tumor Weights” value [3] was 2242 mg.

B1: LT1002: murine anti-S1P monoclonal antibody, IgG1 kappa, from hybridoma clone 306D326.26 (antibody, listed as Mus sp., V domains shown)
VH: QAHLQQSDAELVKPGASVKISCKVSGFIFIDHTIHWMKQRPEQGLEWIGCISPRHDITKYNEMFRGKATLTADKSSTTAYIQVNSLTFEDSAVYFCARGGFYGSTIWFDFWGQGTTLTVS
VL: ETTVTQSPASLSMAIGEKVTIRCITTTDIDDDMNWFQQKPGEPPNLLISEGNILRPGVPSRFSSSGYGTDFLFTIENMLSEDVADYYCLQSDNLPFTFGSGTKLEIK
With B1 the “decrease in neovascularization of VEGF-containing plugs vs saline-treated animals” value [4, 8] was 5 fold, the “decrease in neovascularization of bFGF-containing plugs vs saline-treated animals” value [4, 8] was 8.5 fold and the “EC infiltration into S1P-containing Matrigel plugs” value ([4]; systemic, every 48 hrs) was “reduced amount of EC infiltration”. The “Specificity (ELISA)” value [5] was “High”, the “recognition of ceramide-1-phosphate (C1P)” value [5] was “no antibody binding was observed” and the “recognition of ceramide-1-phosphate (C1P)” value ([5]; listed as SPHINGOMAB) was “did not recognize”. For the same molecule, the “cross-reactivity with dihydrosphingosine-1-phosphate (DH-S1P)” value ([5]; competitor DH-S1P) was “did cross react”, the “recognition of dihydrosphingosine (DH-SPH)” value ([5]; competitor DH-SPH) was “did not recognize” and the “cross-reactivity to lysophosphatidic acid (LPA)” value [5] was “no binding”. The “cross-reactivity to lysophosphatidic acid (LPA)” value ([5]; listed as SPHINGOMAB) was “no cross-reactivity”, the “recognition of phosphatidyl ethanolamine (PE)” value ([5]; competitor PE) was “did not recognize” and the “recognition of phosphatidyl serine (PS)” value ([5]; competitor PS) was “did not recognize”. For the same molecule, the “recognition of sphingomyelin (SM)” value ([5]; competitor SM) was “did not recognize”, the “cross-reactivity with sphingosylphosphoryl choline (SPC)” value ([5]; competitor SPC) was “somewhat reduced” and the “cross-reactivity to sphingosine (SPH)” value ([5]; competitor SPH) was “no cross-reactivity”.
